Experimental data as given in patent publication US20040072152A1.
Where “and” joins values, the source holds several entries; their conditions need not be identical. Equal values may be shown once.

Assays:
Conditions in all cases: scale: ratio of % tetramer-binding CD8alpha-high cells, bound/unbound fraction
[1] = biological target: E-selectin expressed on CHO-E cells (UniProt P16581); assay: peptide-stimulated PBMC, one hour rotary co-incubation with CHO-E monolayer, flow cytometry with tetramer B7-APA
[2] = biological target: E-selectin expressed on CHO-E cells (UniProt P16581); assay: un-manipulated PBMC, one hour rotary co-incubation with CHO-E monolayer, flow cytometry with tetramer B7-RPR
[3] = biological target: E-selectin expressed on CHO-E cells (UniProt P16581); assay: peptide-stimulated PBMC, one hour rotary co-incubation with CHO-E monolayer, flow cytometry with tetramer B7-RPR

For “CLA-associated E-selectin ligand on HSV-2-specific CD8+ T-cells”, the CHO-E-selectin enrichment [1] was 8.3, the CHO-E-selectin enrichment [2] was 13.2 and 10.1 and 5.6 and the CHO-E-selectin enrichment [3] was 9.5.
